Changes are numbered by the printed parent chain.
T1: human FcgRIIa type R extracellular domain (human, UniProt P12318 34-217)
T1 construct: extracellular domain; also called hFcgRIIaR
T1 sequence (looked up): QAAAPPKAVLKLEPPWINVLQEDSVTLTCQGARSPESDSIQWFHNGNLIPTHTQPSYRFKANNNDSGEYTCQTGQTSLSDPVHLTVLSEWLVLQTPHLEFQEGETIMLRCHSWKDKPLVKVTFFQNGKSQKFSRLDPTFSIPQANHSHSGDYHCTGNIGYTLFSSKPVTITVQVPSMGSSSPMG

T2: human FcgRIIa type H extracellular domain (human, UniProt P12318 34-217)
T2 construct: extracellular domain; also called hFcgRIIaH
T2 sequence (looked up): T1 sequence (looked up) with R134H

T3: human FcgRIIb extracellular domain (human, UniProt P31994 43-217)
T3 construct: extracellular domain; also called hFcgRIIb
T3 sequence (looked up): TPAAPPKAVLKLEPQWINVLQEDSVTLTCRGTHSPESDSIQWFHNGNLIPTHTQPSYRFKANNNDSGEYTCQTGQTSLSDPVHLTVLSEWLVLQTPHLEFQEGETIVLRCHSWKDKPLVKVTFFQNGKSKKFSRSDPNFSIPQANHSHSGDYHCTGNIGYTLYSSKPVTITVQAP

B1: A375-SCF027/B167-Lamlib (antibody, human IgG1, lambda)
heavy: EVQLVESGGGLVKPGGSLRLSCAASGFTFSTFTMNWVRQAPGKGLEWVSSISSKSTYIEYADSFKVRFTISRDNAKNSLYLQMNSLRAEDTAVYYCARYGAKNFLNWVFDYWGQGTLVTVSSASTKGPSVFPLAPSSKSTSGGTAALGCLVKDYFPEPVTVSWNSGALTSGVHTFPAVLQSSGLYSLSSVVTVPSSSLGTQTYICNVNHKPSNTKVDKKVEPKSCDKTHTCPPCPAPEYLGGDSVFLFPPKPKDVLMISRTPEVTCVVIDVSHEDPEVKFNWYVDGVEVHNAKTKPREEQYNSTYRVVSVLPVLHQDWLNGKEYKCKVSNKALPKPIEKTISKAKGQRREPQVYTLPPSREEMTKNQVSLTCLVKGFYPSDIAVEWESNGQPENNYKTTPPVLDSDGSFFLYSKLTVKKSRWQQGNVFSCSVMHEALHNHYTQKSLSLSP
light: QSALTQPPSASGSPGQTVTISCTGTRYDVGYYEYVSWYQQHPGKAPKLMIYETSKRLSGVPDRFSGSKSGNTASLTVSGLQAEDEADYYCSSYRYEHQVSFGGGTKLTVLGQPKAAPSVTLFPPSSEELQANKATLVCLISDFYPGAVTVAWKADSSPVKAGVETTTPSKQSNNKYAASSYLSLTPEQWKSHRSYSCQVTHEGSTVEKTVAPTECS
B2: A375-SCF028/B167-Lamlib (antibody, human IgG1, lambda)
heavy: B1 heavy with G242D, I269V
light: B1 light
B3: A375-SCF032/B167-Lamlib (antibody, human IgG1, lambda)
heavy: B1 heavy with Q316R, K418D
light: B1 light
B4: A375-SCF030/B167-Lamlib (antibody, human IgG1, lambda)
heavy: EVQLVESGGGLVKPGGSLRLSCAASGFTFSTFTMNWVRQAPGKGLEWVSSISSKSTYIEYADSFKVRFTISRDNAKNSLYLQMNSLRAEDTAVYYCARYGAKNFLNWVFDYWGQGTLVTVSSASTKGPSVFPLAPSSKSTSGGTAALGCLVKDYFPEPVTVSWNSGALTSGVHTFPAVLQSSGLYSLSSVVTVPSSSLGTQTYICNVNHKPSNTKVDKKVEPKSCDKTHTCPPCPAPELWNGPSVFLFPPKPKDTLMISRTPEVTCVVVDVSDEDPEVKFNWYVDGVEVHNAKTKPREELYNSTYRVVSVLTVLHRDWLNGKEYKCKVSNTALPKPIEKTISKAKGQRREPQVYTLPPSREEMTKNQVSLTCLVKGFYPSDIAVEWESNGQPENNYKTTPPVLDSDGSFFLYSKLTVDKSRWQQGNVFSCSVMHEALHNHYTQKSLSLSP
light: B1 light

What follows are binders tested against human FcRn (human, UniProt P55899 24-290; P61769 21-119) (assay: SPR 25C pH 6.0, steady state).
Experimental: Biacore T200 (GE Healthcare) was used to assess the binding activity to human FcRn. Measurement was performed at 25° C. using 50 mM phosphate, 150 mM NaCl, 0.05 w/v %-P20, pH 6.0 as buffer. Human FcRn proteins used for this determination were prepared by the procedure described in WO2010107110. About 400 RU of antibody was captured using a sensor chip immobilized with CaptureSelect™ Human Fab-lambda Kinetics Biotin Conjugate (Thermo Fisher Scientific) as a molecule for ligand capturing, followed by the binding of human FcRn diluted in measuring buffer. The activity of the respective antibodies to bind FcRn was assessed by calculating KD(mol/L) by the steady-state model using Biacore T200 Evaluation Software 2.0.

Kd [nM]	Binder
1330	B1
1270	B2
966	B3
863	B4

These binders were tested against T4, human FcgRIa extracellular domain (human, UniProt P12314 16-292) (assay: SPR 25C).
T4 construct: extracellular domain; also called hFcgRIa
Experimental: (§1) Biacore T200 (GE Healthcare) was used to evaluate the binding activity to the respective human Fcγ receptor (hereafter referred to as FcγR). Measurement was performed at 25° C. using 50 mM phosphate, 150 mM NaCl, 0.05 w/v %-P20, pH 7.4 as buffer. About 1000 RU of antibody was captured using a sensor chip immobilized with CaptureSelect™ Human Fab-lambda Kinetics Biotin Conjugate (Thermo Fisher Scientific) as a molecule for ligand capturing. Human FcγR was diluted to 8 nM for FcγRIa and 1000 nM for other FcγR in the measurement buffer, and it was interacted to the captured antibody. The binding activity of each antibody to FcγR was assessed by calculating the binding amount of FcγR (RU) per unit amount of antibody using Biacore T200 Evaluation Software 2.0.

T4 sequence (P12314 16-292): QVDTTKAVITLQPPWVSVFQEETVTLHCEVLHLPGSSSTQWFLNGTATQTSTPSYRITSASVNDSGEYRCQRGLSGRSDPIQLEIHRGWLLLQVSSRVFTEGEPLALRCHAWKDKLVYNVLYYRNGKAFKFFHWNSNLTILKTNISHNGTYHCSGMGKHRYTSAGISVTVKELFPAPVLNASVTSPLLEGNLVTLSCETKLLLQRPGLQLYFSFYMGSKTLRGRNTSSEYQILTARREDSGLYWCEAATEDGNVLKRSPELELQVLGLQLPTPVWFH

binding per 1RU antibody [RU]	relative binding (A375-G1T3/B167-Lamlib=1)	Binder
0.0044	0.05	B1
0.0027	0.03	B2
0.0049	0.06	B3
0.002	0.02	B4

These binders were tested against T5, human FcgRIIIa F158 extracellular domain (human, UniProt P08637 17-208) (assay: SPR 25C).
T5 construct: extracellular domain; also called hFcgRIIIaF
Experimental: as §1

T5 sequence (P08637 17-208): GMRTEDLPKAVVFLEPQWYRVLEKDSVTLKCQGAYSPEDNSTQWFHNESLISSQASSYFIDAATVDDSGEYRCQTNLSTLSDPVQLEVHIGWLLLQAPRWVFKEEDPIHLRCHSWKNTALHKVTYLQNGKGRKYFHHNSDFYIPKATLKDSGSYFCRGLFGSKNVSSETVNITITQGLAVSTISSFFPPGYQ

binding per 1RU antibody [RU]	relative binding (A375-G1T3/B167-Lamlib=1)	Binder
-0.0005	-0.02	B1
-0.0009	-0.04	B2
-0.0007	-0.03	B3
0.0017	0.08	B4

The binders below were run against T1, human FcgRIIa type R extracellular … (assay: SPR 25C).
Experimental: as §1

binding per 1RU antibody [RU]	relative binding (A375-G1T3/B167-Lamlib=1)	Binder
0.0058	0.12	B1
0.0299	0.64	B2
-0.0004	-0.01	B3
0.0532	1.15	B4

Each binder was assayed against T2, human FcgRIIa type H extracellular … (assay: SPR 25C).
Experimental: as §1

binding per 1RU antibody [RU]	relative binding (A375-G1T3/B167-Lamlib=1)	Binder
0.0031	0.06	B1
0.0101	0.18	B2
0.003	0.05	B3
0.0533	0.94	B4

What follows are binders tested against T6, human FcgRIIIa V158 extracellular domain (human, UniProt P08637 17-208) (assay: SPR 25C).
T6 construct: extracellular domain; also called hFcgRIIIaV
Experimental: as §1

T6 sequence (P08637 17-208 F176V): as the sequence (P08637 17-208) above, with F160V counted along it

binding per 1RU antibody [RU]	relative binding (A375-G1T3/B167-Lamlib=1)	Binder
-0.0006	-0.01	B1
-0.001	-0.01	B2
-0.0007	-0.01	B3
0.002	0.03	B4

The binders below were run against T3, human FcgRIIb extracellular domain (assay: SPR 25C).
Experimental: as §1

binding per 1RU antibody [RU]	relative binding (A375-G1T3/B167-Lamlib=1)	Binder
0.0766	6.99	B1
0.0995	9.08	B2
0.0782	7.14	B3
0.0532	4.85	B4
